Laboratory results as given in PMC9482650, “Quantitative fragmentomics allow affinity mapping of interactomes” (Nature Communications, 2022).

Key:
Experiment in all cases: holdup assay
Parameters in all cases: key: below the threshold = too weak to quantify, mostly under pKd 3.1 to 4
Conditions in all cases: plain residues with an end cap or a label only (N-terminal biotin on a linker: ttds)
[1] = molecular target: T1, APBA1_1, Q02410
T1 sequence (Q02410 651-752, limits assumed, looked up): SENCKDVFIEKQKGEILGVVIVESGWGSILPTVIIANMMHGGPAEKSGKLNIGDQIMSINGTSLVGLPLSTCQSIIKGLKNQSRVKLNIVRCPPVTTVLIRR

[2] = molecular target: T2, ARHGEF11, O15085
T2 sequence (O15085 42-136, limits assumed, looked up): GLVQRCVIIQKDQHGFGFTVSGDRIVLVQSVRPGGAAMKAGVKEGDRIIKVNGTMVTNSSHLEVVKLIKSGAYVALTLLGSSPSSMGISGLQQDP

[3] = molecular target: ARHGEF12, Q9NZN5-2
Chain of ARHGEF12, Q9NZN5-2 (Q9NZN5 other isoform, or with tags, fused parts or gaps): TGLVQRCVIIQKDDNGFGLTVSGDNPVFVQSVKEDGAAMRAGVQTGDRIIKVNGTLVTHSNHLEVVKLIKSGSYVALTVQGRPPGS

[4] = molecular target: DLG5_1, Q8TDM6
Chain of DLG5_1, Q8TDM6 (Q8TDM6 617-713): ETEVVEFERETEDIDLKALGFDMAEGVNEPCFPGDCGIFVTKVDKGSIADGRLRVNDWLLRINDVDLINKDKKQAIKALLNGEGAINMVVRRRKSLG

[5] = molecular target: FRMPD3, Q5JV73
Chain of FRMPD3, Q5JV73 (Q5JV73 12-100): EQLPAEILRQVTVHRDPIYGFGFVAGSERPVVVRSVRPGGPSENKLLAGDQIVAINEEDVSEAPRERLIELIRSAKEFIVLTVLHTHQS

[6] = molecular target: GRID2IP_2, A4D2P6
Chain of GRID2IP_2, A4D2P6 (A4D2P6 272-370): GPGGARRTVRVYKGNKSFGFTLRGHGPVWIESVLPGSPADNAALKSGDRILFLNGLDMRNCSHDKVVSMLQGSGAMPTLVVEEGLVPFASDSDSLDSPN

[7] = molecular target: T3, GRIP1_2, Q9Y3R0
T3 sequence (Q9Y3R0 145-248, limits assumed, looked up): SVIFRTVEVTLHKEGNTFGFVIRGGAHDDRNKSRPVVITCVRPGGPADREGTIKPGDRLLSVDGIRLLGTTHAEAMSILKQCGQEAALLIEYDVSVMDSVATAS

[8] = molecular target: HTRA1, Q92743
Chain of HTRA1, Q92743 (Q92743 360-477): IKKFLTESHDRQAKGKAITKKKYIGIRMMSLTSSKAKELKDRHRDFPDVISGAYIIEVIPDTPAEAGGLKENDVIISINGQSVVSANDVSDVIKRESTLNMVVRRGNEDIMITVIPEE

[9] = molecular target: IL16_1, Q14005
Chain of IL16_1, Q14005 (Q14005 210-306): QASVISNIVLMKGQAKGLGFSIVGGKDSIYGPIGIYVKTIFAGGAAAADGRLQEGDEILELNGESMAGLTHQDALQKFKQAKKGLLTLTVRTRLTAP

[10] = molecular target: IL16_3, Q14005
Chain of IL16_3, Q14005 (Q14005 1107-1207): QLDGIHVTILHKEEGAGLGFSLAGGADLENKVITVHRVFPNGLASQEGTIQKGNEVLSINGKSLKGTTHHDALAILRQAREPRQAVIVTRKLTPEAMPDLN

[11] = molecular target: Inadl_3, Q8NI35
Chain of Inadl_3, Q8NI35 (Q8NI35 359-469): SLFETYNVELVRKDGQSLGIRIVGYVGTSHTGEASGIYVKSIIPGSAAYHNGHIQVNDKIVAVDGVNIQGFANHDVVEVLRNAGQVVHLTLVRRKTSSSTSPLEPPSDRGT

[12] = molecular target: Inadl_5, Q8NI35
Chain of Inadl_5, Q8NI35 (Q8NI35 673-780): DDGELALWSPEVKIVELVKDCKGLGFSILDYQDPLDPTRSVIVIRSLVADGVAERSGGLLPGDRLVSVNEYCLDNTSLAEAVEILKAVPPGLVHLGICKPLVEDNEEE

[13] = molecular target: LNX1_2, Q8TBB1
Chain of LNX1_2, Q8TBB1 (Q8TBB1 371-470): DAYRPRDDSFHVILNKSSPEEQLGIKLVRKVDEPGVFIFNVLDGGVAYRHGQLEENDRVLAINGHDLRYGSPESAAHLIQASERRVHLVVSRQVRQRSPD

[14] = molecular target: MAGI2_2, Q86UL8
Chain of MAGI2_2, Q86UL8 (Q86UL8 410-522): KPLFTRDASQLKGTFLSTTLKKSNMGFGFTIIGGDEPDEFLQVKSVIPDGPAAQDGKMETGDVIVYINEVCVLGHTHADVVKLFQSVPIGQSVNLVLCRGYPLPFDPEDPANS

[15] = molecular target: MAGI3_2, Q5TCQ9
Chain of MAGI3_2, Q5TCQ9 (Q5TCQ9 398-503): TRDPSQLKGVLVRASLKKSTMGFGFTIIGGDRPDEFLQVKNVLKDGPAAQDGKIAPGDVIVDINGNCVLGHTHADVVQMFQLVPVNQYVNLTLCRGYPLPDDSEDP

[16] = molecular target: MAST1, Q9Y2H9
Chain of MAST1, Q9Y2H9 (Q9Y2H9 962-1065): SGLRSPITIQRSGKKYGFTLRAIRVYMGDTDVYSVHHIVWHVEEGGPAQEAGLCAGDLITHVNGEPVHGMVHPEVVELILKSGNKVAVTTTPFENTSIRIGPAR

[17] = molecular target: T4, MPP7, Q5T2T1
T4 sequence (Q5T2T1 134-230, limits assumed, looked up): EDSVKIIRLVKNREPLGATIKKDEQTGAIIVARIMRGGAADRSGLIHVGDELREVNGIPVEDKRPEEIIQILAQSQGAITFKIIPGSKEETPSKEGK

[18] = molecular target: T5, NHERF3_3, Q5T2W1
T5 sequence (Q5T2W1 238-333, limits assumed, looked up): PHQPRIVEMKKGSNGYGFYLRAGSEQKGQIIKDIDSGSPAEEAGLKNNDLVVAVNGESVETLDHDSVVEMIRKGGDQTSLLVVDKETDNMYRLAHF

[19] = molecular target: PDLIM1, O00151
Chain of PDLIM1, O00151 (O00151 1-87): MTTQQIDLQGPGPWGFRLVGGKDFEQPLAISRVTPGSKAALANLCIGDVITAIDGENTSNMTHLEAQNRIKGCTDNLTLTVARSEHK

[20] = molecular target: T6, PDZRN3_1, Q9UPQ7
T6 sequence (Q9UPQ7 244-349, limits assumed, looked up): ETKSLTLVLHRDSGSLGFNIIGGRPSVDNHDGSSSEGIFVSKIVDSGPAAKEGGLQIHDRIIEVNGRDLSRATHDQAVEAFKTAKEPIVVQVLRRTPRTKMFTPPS

[21] = molecular target: PTPN3, P26045
Chain of PTPN3, P26045 (P26045 505-587): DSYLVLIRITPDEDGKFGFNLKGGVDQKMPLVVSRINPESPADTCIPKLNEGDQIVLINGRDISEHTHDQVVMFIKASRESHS

[22] = molecular target: T7, RADIL, Q96JH8
T7 sequence (Q96JH8 971-1071, limits assumed, looked up): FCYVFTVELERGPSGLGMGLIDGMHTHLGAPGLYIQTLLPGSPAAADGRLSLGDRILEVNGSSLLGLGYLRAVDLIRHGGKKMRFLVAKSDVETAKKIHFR

[23] = molecular target: T8, RAPGEF6, Q8TEU7
T8 sequence (Q8TEU7 525-625, limits assumed, looked up): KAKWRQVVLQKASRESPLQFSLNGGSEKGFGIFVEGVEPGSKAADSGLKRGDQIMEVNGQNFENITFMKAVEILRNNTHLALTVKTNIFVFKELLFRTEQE

[24] = molecular target: T9, RHPN1, Q8TCX5
T9 sequence (Q8TCX5 508-602, limits assumed, looked up): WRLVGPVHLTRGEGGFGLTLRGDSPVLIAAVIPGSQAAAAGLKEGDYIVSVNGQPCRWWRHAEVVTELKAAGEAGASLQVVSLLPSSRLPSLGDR

[25] = molecular target: T10, SNTA1, Q13424
T10 sequence (Q13424 82-180, limits assumed, looked up): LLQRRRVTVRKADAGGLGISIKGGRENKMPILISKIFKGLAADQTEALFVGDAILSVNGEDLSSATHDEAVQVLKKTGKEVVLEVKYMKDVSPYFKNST

[26] = molecular target: T11, SNTG2, Q9NY99
T11 sequence (Q9NY99 68-166, limits assumed, looked up): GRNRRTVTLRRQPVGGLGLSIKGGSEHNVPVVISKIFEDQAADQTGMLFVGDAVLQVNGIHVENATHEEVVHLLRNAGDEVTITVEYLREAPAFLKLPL

[27] = molecular target: TJP1_3, Q07157
Chain of TJP1_3, Q07157 (Q07157 416-512): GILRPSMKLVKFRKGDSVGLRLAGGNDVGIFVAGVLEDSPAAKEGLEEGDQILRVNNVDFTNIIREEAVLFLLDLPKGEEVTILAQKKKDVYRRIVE

MERLRVETDV [ARHGEF16, Q5VV41]
pKd [1]: below the threshold
pKd [2]: 4.21
pKd [3]: 4.22
pKd [4]: below the threshold
pKd [5]: below the threshold
pKd [6]: 3.57
pKd [7]: below the threshold
pKd [8]: below the threshold
pKd [9]: below the threshold
pKd [10]: below the threshold
pKd [11]: 3.8
pKd [12]: below the threshold
pKd [13]: 3.62
pKd [14]: 4.38
pKd [15]: 4.6
pKd [16]: 4.39
pKd [17]: 3.54
pKd [18]: below the threshold
pKd [19]: 4
pKd [20]: 3.53
pKd [21]: 4.38
pKd [22]: below the threshold
pKd [23]: below the threshold
pKd [24]: 4.18
pKd [25]: 4.62
pKd [26]: 4.47
pKd [27]: below the threshold

SPLHSLETSL [ATP2B1, P20020]
pKd [1]: below the threshold
pKd [2]: 4.27
pKd [3]: 4.88
pKd [4]: below the threshold
pKd [5]: 3.59
pKd [6]: 4.17
pKd [7]: below the threshold
pKd [8]: 3.75
pKd [9]: below the threshold
pKd [10]: below the threshold
pKd [11]: 3.51
pKd [12]: below the threshold
pKd [13]: below the threshold
pKd [14]: 3.86
pKd [15]: 3.69
pKd [16]: 4.92
pKd [17]: below the threshold
pKd [18]: below the threshold
pKd [19]: 3.71
pKd [20]: 5.09
pKd [21]: 4.95
pKd [22]: below the threshold
pKd [23]: below the threshold
pKd [24]: 4.75
pKd [25]: 4.5
pKd [26]: 4.66
pKd [27]: below the threshold

IQREDQETAV [DGKZ, Q13574]
pKd [1]: below the threshold
pKd [2]: 4.47
pKd [3]: 4.22
pKd [4]: below the threshold
pKd [5]: below the threshold
pKd [6]: 3.98
pKd [7]: below the threshold
pKd [8]: 3.96
pKd [9]: 4.38
pKd [10]: below the threshold
pKd [11]: below the threshold
pKd [12]: below the threshold
pKd [13]: below the threshold
pKd [14]: 3.65
pKd [15]: 4.85
pKd [16]: 4.57
pKd [17]: below the threshold
pKd [18]: below the threshold
pKd [19]: below the threshold
pKd [20]: 4.91
pKd [21]: 5.12
pKd [22]: below the threshold
pKd [23]: below the threshold
pKd [24]: 4.35
pKd [25]: 5.37
pKd [26]: 4.95
pKd [27]: below the threshold
